Assay results reported in patent US20250051417A1.
Each block holds one substance with its values, some of them ahead of it.

Tests used:
[1] = biological target: biotinylated Monomer MHC (HLA-A* 02:01 SLC45A2 (Biolegend, Custom Product, … (SEQ ID NO: 2)) (human)); experiment: flow cytometry of stained beads, calibrated; divided by the bead surface area
[2] = biological target: biotinylated Monomer MHC (HLA-A* 02:01 SLC45A2 (Biolegend, Custom Product, … (SEQ ID NO: 2)) (human)); experiment: flow cytometry of stained beads, calibrated; divided by the nominal bead surface area
[3] = biological target: costimulation antibodies on the antigen presenting beads (biotinylated anti-CD28 and biotinylated anti-CD2); experiment: flow cytometry of stained beads, calibrated; divided by the bead surface area
[4] = biological target: costimulation antibodies on the antigen presenting beads (biotinylated anti-CD28 and biotinylated anti-CD2); experiment: flow cytometry of stained beads, calibrated; divided by the nominal bead surface area
[5] = biological target: costimulation antibodies on the antigen presenting beads (biotinylated anti-CD28 and biotinylated anti-CD2); experiment: flow cytometry of stained beads, APC intensity calibrated with Quantum Simply Cellular beads; assumes 1 detection antibody per costimulation antibody
[6] = biological target: Biotinylated peptide-Human Leukocyte Antigen complexes (pMHC); experiment: flow cytometry of stained beads, APC MFI calibrated with Quantum Simply Cellular beads; silica bead
[7] = biological target: Biotinylated peptide-Human Leukocyte Antigen complexes (pMHC); experiment: flow cytometry of stained beads, APC MFI calibrated with Quantum Simply Cellular beads; polymeric bead

- pMHC Density (molecules/sq micron) [1]: 14800
- pMHC Density (molecules/sq micron) [2]: 19800
Substance: APC-conjugated anti-HLA-A (Biolegend, Catalog Number 343308) (antibody)

- Costimulation Antibody Density (molecules/sq micron) [3]: 15600
- Costimulation Antibody Density (molecules/sq micron) [4]: 17300
- Costimulation antibodies/bead (anti-Mouse IgG1 antibodies bound per bead) (antibodies/bead) ([5]; M-280 convoluted polymer beads): 427000
- Costimulation antibodies/bead (anti-Mouse IgG1 antibodies bound per bead) (antibodies/bead) ([5]; substantially spherical silica beads): 845000
Substance: APC-conjugated monoclonal anti-Mouse-IgG1 (Biolegend, Catalog Number 406610) (antibody)

Substance: anti-HLA-A conjugated to APC (Clone BB7.2, Biolegend) (antibody)
- Ligands/Bead (detection antibodies bound per bead) [6]: 604000 Ligands/Bead
- Ligands/sq um (Ligands/sq um) [6]: 12000
- Ligands/Bead (detection antibodies bound per bead) [7]: 487000 Ligands/Bead
- Ligands/sq um (Ligands/sq um) [7]: 19800
